Experiment [1] deals with YfiB^L43P/F57A (residues 34–168) (P. aeruginosa, UniProt Q9I4L6 34-168, L43P | F57A). As to the kind of experiment: ITC.
Experiment [2] has as its target YfiB^L43P (residues 34–168), purified alone (P. aeruginosa, UniProt Q9I4L6 34-168, L43P). In words: ITC.

B1: YfiR (residues 35–190), purified alone (domain or fragment)
chain: DDARTSIEQRSNAVSQVLLGIFSYVRWPKEPAVLQLCVVGPTEYADGLLRGMVQANGRRVHAERRAVDNPDLGTLCNVIYLGVVDERERQQVFRSLAGHPVLSISERGTECSVGSMFCLNVGGPRITFEANLDSIARSGVRVHPSVLKLARRQATP
With B1, the values for the Ka in experiment [1] and in experiment [2] were 1.87e+06 M⁻¹ and 7.12e+06 M⁻¹, respectively.

The values are drawn from PMC4887326 (2016).
